The record followed here is patent US20190142971A1, “FORMULATION AND DELIVERY OF MODIFIED NUCLEOSIDE, NUCLEOTIDE, AND NUCLEIC ACID COMPOSITIONS” (ModernaTX, Inc., priority 2013, published 2019).

Like-named read-outs stand apart in the source and are kept apart here.

For data set [1], the system named is peripheral blood mononuclear cells (PBMC). The data set can be described thus: Example 56: percent modification, PBMC G-CSF ELISA (Table 85). The class given is cell-based, human. Conditions: 22 hours after transfection. The method, then: 480 ng of G-CSF mRNA modified with 5-methylcytosine (5mC) and pseudouridine (pseudoU) or unmodified G-CSF mRNA was transfected with 0.4 uL of Lipofectamine 2000 into peripheral blood mononuclear cells (PBMC) from three normal blood donors (D1, D2, and D3). […] The supernatant was harvested and run by ELISA 22 hours after transfection to determine the protein expression. The expression of IFN-alpha and TNF-alpha may be a secondary effect from the transfection of the G-CSF mRNA.

The test system of a further data set is Balb-C mice. The data set can be described thus: Example 79: fibrin sealant (Tisseel) with luciferase mRNA SC in mice, total flux (Tables 119, 120). The conditions noted are these: subcutaneous. The class given is in vivo. The method, then:
The thrombin and fibrinogen components were loaded separately into a dual barreled syringe. […] The injection of fibrinogen and thrombin was done simultaneously using the dual-barreled syringe. The subcutaneous injection of luciferase was done 15 minutes after the fibrinogen/thrombin injection to allow the fibrin hydrogel to polymerize (Tisseel+Luciferase group). A control group of untreated mice were also evaluated. The mice were imaged at 5 hours and 24 hours. Twenty minutes prior to imaging, mice were injected intraperitoneally with a D-luciferin solution at 150 mg/kg. Animals were then anesthetized and images were acquired with an IVIS Lumina II imaging system (Perkin Elmer). Bioluminescence was measured as total flux (photons/second) of the entire mouse.

Data set [2] deals with peripheral blood mononuclear cells (PBMC). Briefly: Example 46A: percent modification, PBMC G-CSF ELISA (Table 73). It is filed as cell-based, human. The method, then: 960 ng of G-CSF mRNA modified with 5-methylcytosine (5mC) and pseudouridine (pseudoU) or unmodified G-CSF mRNA was transfected with 0.8 uL of Lipofectamine 2000 into peripheral blood mononuclear cells (PBMC) from three normal blood donors (D1, D2, D3). […] The supernatant was harvested and run by ELISA 22 hours after transfection to determine the protein expression. The expression of IFN-alpha and TNF-alpha may be a secondary effect from the transfection of the G-CSF mRNA.
Background: ELISA stands for enzyme-linked immunosorbent assay.

In the next data set the test system is human PBMC. The data set can be described thus: Example 45: PBMC transfection, IFN-alpha ELISA (Table 72). It is filed as cell-based. The protocol:
The plates were then incubated at 37 C.
Each condition was done in duplicate.
Shown in Tables 71 and 72 are the average from 2 separate PBMC donors of the G-CSF and IFN-alpha production over time as measured by specific ELISA.

The subject of the next data set is Sprague Dawley rats. The data set can be described thus: Example 60: G-CSF/Factor IX mRNA IM in rats, serum G-CSF ELISA (Table 94). The class given is in vivo. Conditions: I.M., 400 ug in 100 ul, 5% sucrose, 8 hours after injection. The method, then: Protein production of modified mRNA was evaluated by delivering modified G-CSF mRNA or modified Factor IX mRNA to female Sprague Dawley rats (n=6). […] Blood was collected 8 hours after injection and the G-CSF protein level in serum was measured by ELISA.

A further data set deals with mice. The conditions noted are these: for Serum Concentration 8-12 hours after administration: G-CSF; for G-CSF Protein Expression, Conc: LNP IV, mice, 8 hrs.
A further data set has as its system C57/BL6 mice. Briefly: Example 32B: human G-CSF lipoplex IM, SC, IV in mice, serum G-CSF ELISA at 6 hours (Table 56). It is filed as in vivo. Conditions: serum 6 hours after administration. The method, then:
6 hours after administration of a formulation, serum was collected from each mouse to measure the amount of human G-CSF protein in the mouse serum by human G-CSF ELISA and the results are shown in Table 56.

The next data set deals with C57BL/6. The data set can be described thus: Example 116: mouse EPO mRNA in mannitol multi-dose, serum EPO (Table 186). It is filed as in vivo, mice. The conditions noted are these: mouse EPO mRNA in 5% isotonic Mannitol, IM 2.5 mg/kg per dose. The method, then: Serum was collected from the mice at 24 hours post the second, fourth, sixth and eighth doses.

As to “Luciferase: luciferase mRNA, SEQ ID NO: 14, Cap1, fully modified with 5-methylcytosine and pseudouridine”, the “G-CSF Expression” value in data set [1] (PBMC donor D1, 480 ng mRNA) was determined as 90.2 pg/mL; in data set [1] (PBMC donor D2, 480 ng mRNA), 0.0 pg/mL; in data set [1] (PBMC donor D3, 480 ng mRNA), 22.1 pg/mL; in data set [2] (PBMC donor D1, 960 ng mRNA) it was 14.5 pg/mL; in data set [2] (PBMC donor D2, 960 ng mRNA), 3.1 pg/mL; in data set [2] (PBMC donor D3, 960 ng mRNA), 10.0 pg/mL. Besides, the “Total Flux” value in the data set with Balb-C mice (5 Hours) is reported as 9.94E+05 p/s; in the data set with Balb-C mice (24 Hours), 7.44E+05 p/s.

B1: G-CSF: modified mRNA encoding human G-CSF, SEQ ID NO: 4, Cap1, fully modified with 5-methylcytosine and pseudouridine; LNP-formulated in Examples 16-22 (nucleic acid)
chain: GGGAAAUAAGAGAGAAAAGAAGAGUAAGAAGAAAUAUAAGAGCCACCAUGGCCGGUCCCGCGACCCAAAGCCCCAUGAAACUUAUGGCCCUGCAGUUGCUGCUUUGGCACUCGGCCCUCUGGACAGUCCAAGAAGCGACUCCUCUCGGACCUGCCUCAUCGUUGCCGCAGUCAUUCCUUUUGAAGUGUCUGGAGCAGGUGCGAAAGAUUCAGGGCGAUGGAGCCGCACUCCAAGAGAAGCUCUGCGCGACAUACAAACUUUGCCAUCCCGAGGAGCUCGUACUGCUCGGGCACAGCUUGGGGAUUCCCUGGGCUCCUCUCUCGUCCUGUCCGUCGCAGGCUUUGCAGUUGGCAGGGUGCCUUUCCCAGCUCCACUCCGGUUUGUUCUUGUAUCAGGGACUGCUGCAAGCCCUUGAGGGAAUCUCGCCAGAAUUGGGCCCGACGCUGGACACGUUGCAGCUCGACGUGGCGGAUUUCGCAACAACCAUCUGGCAGCAGAUGGAGGAACUGGGGAUGGCACCCGCGCUGCAGCCCACGCAGGGGGCAAUGCCGGCCUUUGCGUCCGCGUUUCAGCGCAGGGCGGGUGGAGUCCUCGUAGCGAGCCACCUUCAAUCAUUUUUGGAAGUCUCGUACCGGGUGCUGAGACAUCUUGCGCAGCCGUGAAGCGCUGCCUUCUGCGGGGCUUGCCUUCUGGCCAUGCCCUUCUUCUCUCCCUUGCACCUGUACCUCUUGGUCUUUGAAUAAAGCCUGAGUAGGAAG
modifications: Cap1, 5-methylcytosine, pseudouridine
On to B1, for which the “IFN-alpha / cytokine production” value with human PBMC was “induced IFN-alpha, TNF-alpha and IP10”. For the same molecule, the “G-CSF protein in rat serum” value in the data set with Sprague Dawley rats came to 19.37 pg/mL. Further, the “Serum Concentration 8-12 hours after administration” value was approximately 20 to 80 pg/mL in the data set on mice (IM, 100 ug); ~20,000 pg/ml in the data set with mice (IV (LNP), 1 ug); ~1,000,000 pg/ml in the data set on mice (IV (LNP), 10 ug); ~5,000,000 pg/ml with mice (IV (LNP), 100 ug); approximately 30 pg/mL in the data set on mice (IV (Lipoplex), 100 ug); approximately 10 to 40 pg/mL in the data set on mice (SC, 100 ug). Further, the entries for the “G-CSF Protein Expression, Conc” value with mice (dose 10 ug) and in the data set on mice (dose 100 ug) were 1204.82 ng/mL and 4722.20 ng/mL, respectively. Besides, the “Human G-CSF in Serum” value with C57/BL6 mice (I.M., 100 μg) was determined as 85.6 pg/mL; in the data set with C57/BL6 mice (I.V., 100 μg (Luc-unsp 150 μg)) it was 31.0 pg/mL; in the data set on C57/BL6 mice (S.C., 100 μg) it was 3.9 pg/mL.

B2: EPO: modified mRNA encoding human erythropoietin, SEQ ID NO: 7, Cap1, fully modified with 5-methylcytosine and pseudouridine; LNP NPA-060-1 in Examples 17-22 (nucleic acid)
chain: GGGAAAUAAGAGAGAAAAGAAGAGUAAGAAGAAAUAUAAGAGCCACCAUGGGAGUGCACGAGUGUCCCGCGUGGUUGUGGUUGCUGCUGUCGCUCUUGAGCCUCCCACUGGGACUGCCUGUGCUGGGGGCACCACCCAGAUUGAUCUGCGACUCACGGGUACUUGAGAGGUACCUUCUUGAAGCCAAAGAAGCCGAAAACAUCACAACCGGAUGCGCCGAGCACUGCUCCCUCAAUGAGAACAUUACUGUACCGGAUACAAAGGUCAAUUUCUAUGCAUGGAAGAGAAUGGAAGUAGGACAGCAGGCCGUCGAAGUGUGGCAGGGGCUCGCGCUUUUGUCGGAGGCGGUGUUGCGGGGUCAGGCCCUCCUCGUCAACUCAUCACAGCCGUGGGAGCCCCUCCAACUUCAUGUCGAUAAAGCGGUGUCGGGGCUCCGCAGCUUGACGACGUUGCUUCGGGCUCUGGGCGCACAAAAGGAGGCUAUUUCGCCGCCUGACGCGGCCUCCGCGGCACCCCUCCGAACGAUCACCGCGGACACGUUUAGGAAGCUUUUUAGAGUGUACAGCAAUUUCCUCCGCGGAAAGCUGAAAUUGUAUACUGGUGAAGCGUGUAGGACAGGGGAUCGCUGAUAAGCUGCCUUCUGCGGGGCUUGCCUUCUGGCCAUGCCCUUCUUCUCUCCCUUGCACCUGUACCUCUUGGUCUUUGAAUAAAGCCUGAGUAGGAAG
modifications: Cap1, 5-methylcytosine, pseudouridine
Regarding B2, the “Eighth Dose EPO” value in the data set with C57BL/6 (serum 24 hours post eighth dose) was 239.3 pg/mL. The “Fourth Dose EPO” value in the data set on C57BL/6 (serum 24 hours post fourth dose) was determined as 483.4 pg/mL. In the data set with C57BL/6 (serum 24 hours post second dose), the “Second Dose EPO” value came out at 334.7 pg/mL. In addition, in the data set on C57BL/6 (serum 24 hours post sixth dose), the “Sixth Dose EPO” value is 328.9 pg/mL.
